This test addresses T1, SARS-CoV-2 WHU01 Spike RBD, monomeric (SARS-CoV-2, UniProt P0DTC2).
T1 construct: not shown: Fc (human IgG1), C-terminal, cleaved
As to the kind of experiment: SPR. The conditions noted are these: both partners purified.

This passage reports Kd, koff and kon results from article PMC10715038 (Microbiology Spectrum, 2023).

B1: Cattle ACE2-huFc (soluble cattle ACE2 ectodomain, human IgG1 Fc fusion) (Fc fusion)
chain: QSTTEEQAKTFLEKFNHEAEDLSYQSSLASWNYNTNITDENVQKMNEARAKWSAFYEEQSRMAKTYSLEEIQNLTLKRQLKALQHSGTSALSAEKSKRLNTILNKMSTIYSTGKVLDPNTQECLALEPGLDDIMENSRDYNRRLWAWEGWRAEVGKQLRPLYEEYVVLENEMARANNYEDYGDYWRGDYEVTGAGDYDYSRDQLMKDVERTFAEIKPLYEQLHAYVRAKLMHTYPSYISPTGCLPAHLLGDMWGRFWTNLYSLTVPFEHKPSIDVTEKMENQSWDAERIFKEAEKFFVSISLPYMTQGFWDNSMLTEPGDGRKVVCHPTAWDLGKGDFRIKMCTKVTMDDFLTAHHEMGHIQYDMAYAAQPYLLRNGANEGFHEAVGEIMSLSAATPHYLKALGLLAPDFHEDNETEINFLLKQALTIVGTLPFTYMLEKWRWMVFKGEIPKQQWMEKWWEMKREIVGVVEPLPHDETYCDPACLFHVAEDYSFIRYYTRTIYQFQFHEALCKTAKHEGALFKCDISNSTEAGQRLLQMLRLGKSEPWTLALENIVGIKTMDVKPLLNYFEPLFTWLKEQNRNSFVGWSTEWTPYSDQSIKVRISLKSALGENAYEWNDNEMYLFQSSVAYAMRKYFSEARNETVLFGEDNVWVSDKKPRISFKFFVTSPNNVSDIIPRTEVENAIRLSRDRINDVFQLDDNSLEFLGIQPTLGPPYEPPVTI
For the molecule B1, the affinity, expressed as Kd, was 700 nM; the koff is 0.066 s⁻¹; the kon is 94000 M⁻¹ s⁻¹.
